Patent publication US12233115B2, “Long-acting parathyroid hormone” (Extend Biosciences, Inc., priority 2022, dated 2025)

Columns and labels:
[1] = Single dose pharmacokinetics of EXT607 in male cynomolgus monkeys; format: in vivo; details: cynomolgus monkey
Description: In a single dose pharmacokinetic study, EXT607 was formulated in PBS and groups of male cynomolgus monkeys (n=3), weighing approximately 4 kg each, were dosed at a volume of 1 ml/kg as follows: Group 1, 20 μg/kg intravenous; Group 2, 7 μg/kg subcutaneous; Group 3, 20 μg/kg subcutaneous; Group 4, 70 μg/kg subcutaneous. Blood (1.0 mL) was collected via the jugular vein cannula, transferred into tubes containing K2EDTA, and kept on wet ice until processed for plasma. Blood samples were collected at 0 (pre-dose), 0.083 (IV only), 0.25, 0.5, 1, 2, 4, 6, 8, 12, 24, 36, 48, 60 and 72 h post-dose.
(§1) Pharmacokinetic parameters were determined from the plasma concentration versus time data (Table 5) by a non-compartmental analysis with uniform weighting using Phoenix® WinNonlin® Version 6.3 (Certara L.P. (Pharsight), St. Louis, MO). The concentration versus time data were analyzed using the IV bolus or extravascular administration models. Best fit Lambda z ranges were used.
At low doses, the rate of subcutaneous absorption is slower than at high doses, leading to a lower Cmax and an overall flatter PK profile.

[2] = Single dose pharmacokinetics of EXT607 in male rats; details: in vivo, rat
Description: In a single dose pharmacokinetic study, EXT607 was formulated in PBS and groups of male rats (n=3) were dosed at a volume of 1 ml/kg as follows: Group 1, 100 μg/kg intravenous; Group 2, 30 μg/kg subcutaneous; Group 3, 100 μg/kg subcutaneous; Group 4, 300 μg/kg subcutaneous. Blood (0.25 mL) was collected via the jugular vein cannula, transferred into tubes containing K2EDTA, and kept on wet ice until processed for plasma. Blood samples were collected at 0 (predose), 0.083 (IV only), 0.25, 0.5, 1, 2, 4, 6, 8, 12, 24, 36, 48, 60 and 72 h postdose.
as §1, with “4)” for “5)”

[3] = 7 μg/kg SC relative to 70 μg/kg SC
[4] = 20 μg/kg SC relative to 70 μg/kg SC
[5] = in vivo, 7 ug/kg, single 7 μg/kg SC
[6] = in vivo, 20 ug/kg, single 20 μg/kg IV
[7] = in vivo, 20 ug/kg, single 20 μg/kg SC
[8] = in vivo, 70 ug/kg, single 70 μg/kg SC

Question: With `C=C1CC[C@H](OCCCNC(=O)CCOCCOCCOCCOCCOCCOCCOCCOCCOCCOCCOCCOCCOCCOCCOCCOCCOCCOCCOCCOCCOCCOCCOCCOCCOCCOCCOCCOCCOCCOCCOCCOCCOCCOCCOCCOCCNC(=O)CCN2C(=O)CC(SC[C@H](NC(=O)[C@H](Cc3ccccc3)NC(=O)[C@H](CC(N)=O)NC(=O)[C@H](Cc3c[nH]cn3)NC(=O)[C@@H](NC(=O)[C@H](CC(=O)O)NC(=O)[C@H](CCC(N)=O)NC(=O)[C@H](CC(C)C)NC(=O)[C@H](CCCCN)NC(=O)[C@H](CCCCN)NC(=O)[C@H](CCCNC(=N)N)NC(=O)[C@H](CC(C)C)NC(=O)[C@H](Cc3c[nH]c4ccccc34)NC(=O)[C@H](CCC(=O)O)NC(=O)[C@@H](NC(=O)[C@H](CCCNC(=N)N)NC(=O)[C@H](CCC(=O)O)NC(=O)[C@H](CCSC)NC(=O)[C@H](CO)NC(=O)[C@H](CC(N)=O)NC(=O)[C@H](CC(C)C)NC(=O)[C@H](Cc3c[nH]cn3)NC(=O)[C@H](CCCCN)NC(=O)CNC(=O)[C@H](CC(C)C)NC(=O)[C@H](CC(N)=O)NC(=O)[C@H](Cc3c[nH]cn3)NC(=O)[C@H](CCSC)NC(=O)[C@H](CC(C)C)NC(=O)[C@H](CCC(N)=O)NC(=O)[C@@H](NC(=O)[C@H](CCC(=O)O)NC(=O)[C@H](CO)NC(=O)[C@@H](NC(=O)[C@@H](N)CO)C(C)C)[C@@H](C)CC)C(C)C)C(C)C)C(=O)O)C2=O)C/C1=C/C=C1\CCC[C@]2(C)[C@@H]([C@H](C)CCCC(C)(C)O)CC[C@@H]12` (stereo partly shown) [EXT607] as the molecule, how does the “dose-adjusted AUC ratio” value [1, 3] read?
Answer: 0.95

Question: What about the “dose-adjusted Cmax ratio” value [1, 3] of the same molecule?
Answer: 0.28

Question: What about the “dose-adjusted AUC ratio” value [1, 4] of the same molecule?
Answer: 0.85

Question: What about the “dose-adjusted Cmax ratio” value [1, 4] of the same molecule?
Answer: 0.55

Question: And the “dose-adjusted AUC ratio” value ([1]; 70 μg/kg SC (reference))?
Answer: 1.00

Question: And the “dose-adjusted Cmax ratio” value ([1]; 70 μg/kg SC (reference))?
Answer: 1.00

Question: What about the half-life ([1]; in vivo, sc, NHP, after subcutaneous dosing, read-out: terminal half-life) of the same molecule?
Answer: 1440 to 1920 min

Question: And the AUC(0-inf) [1, 5]?
Answer: 483 ng·h/mL

Question: What about the MRT [1, 5] of the same molecule?
Answer: 29.5 h

Question: And the half-life ([1]; in vivo, 7 ug/kg, single 7 μg/kg SC, read-out: t1/2 (converted))?
Answer: 1440 min

Question: What about the AUC(0-inf) [1, 6] of the same molecule?
Answer: 2850 ng·h/mL

Question: And the C0 [1, 6]?
Answer: 782 ng/mL

Question: What about the MRT [1, 6] of the same molecule?
Answer: 11.2 h

Question: What about the Vd ([1]; in vivo, 20 ug/kg, single 20 μg/kg IV, read-out: VZ) of the same molecule?
Answer: 0.34 L/kg

Question: And the half-life ([1]; in vivo, 20 ug/kg, single 20 μg/kg IV, read-out: t1/2 (converted))?
Answer: 1940 min

Question: And the AUC(0-inf) [1, 7]?
Answer: 1290 ng·h/mL

Question: What about the AUC(0-t) [1, 7] of the same molecule?
Answer: 1160 ng·h/mL

Question: And the MRT [1, 7]?
Answer: 23.3 h

Question: What about the half-life ([1]; in vivo, 20 ug/kg, single 20 μg/kg SC, read-out: t1/2 (converted)) of the same molecule?
Answer: 1460 min

Question: And the AUC(0-inf) [1, 8]?
Answer: 5300 ng·h/mL

Question: And the MRT [1, 8]?
Answer: 17.5 h

Question: And the half-life ([1]; in vivo, 70 ug/kg, single 70 μg/kg SC, read-out: t1/2 (converted))?
Answer: 1660 min

Question: And the bioavailability ([1]; in vivo, across SC doses, read-out: bioavailability when delivered subcutaneously)?
Answer: 45 to 54%

Question: What about the half-life ([1]; in vivo, across doses, read-out: t1/2 of elimination) of the same molecule?
Answer: 1440 to 1920 min

Question: And the AUC(0-inf) ([2]; 30 ug/kg, single 30 μg/kg SC)?
Answer: 186 ng·h/mL

Question: What about the MRT ([2]; 30 ug/kg, single 30 μg/kg SC) of the same molecule?
Answer: 15.9 h

Question: And the bioavailability ([2]; 30 ug/kg, single 30 μg/kg SC, read-out: Bioavailability)?
Answer: 12.9%

Question: What about the AUC(0-inf) ([2]; 100 ug/kg, single 100 μg/kg IV) of the same molecule?
Answer: 4390 ng·h/mL

Question: And the C0 ([2]; 100 ug/kg, single 100 μg/kg IV)?
Answer: 2860 ng/mL

Question: What about the MRT ([2]; 100 ug/kg, single 100 μg/kg IV) of the same molecule?
Answer: 3.49 h

Question: What about the Vd ([2]; 100 ug/kg, single 100 μg/kg IV, read-out: VZ) of the same molecule?
Answer: 0.304 L/kg

Question: And the AUC(0-inf) ([2]; 100 ug/kg, single 100 μg/kg SC)?
Answer: 472 ng·h/mL

Question: And the MRT ([2]; 100 ug/kg, single 100 μg/kg SC)?
Answer: 13.7 h

Question: And the bioavailability ([2]; 100 ug/kg, single 100 μg/kg SC, read-out: Bioavailability)?
Answer: 10.7%

Question: And the half-life ([2]; 300 ug/kg, SC 30, 100 or 300 μg/kg, read-out: half-life)?
Answer: 420 to 900 min

Question: And the AUC(0-inf) ([2]; 300 ug/kg, single 300 μg/kg SC)?
Answer: 1290 ng·h/mL

Question: And the MRT ([2]; 300 ug/kg, single 300 μg/kg SC)?
Answer: 13.6 h

Question: And the bioavailability ([2]; 300 ug/kg, single 300 μg/kg SC, read-out: Bioavailability)?
Answer: 9.67%

Question: And the half-life ([2]; sc, rats, after subcutaneous dosing, read-out: terminal half-life)?
Answer: 480 to 900 min

Question: What about the bioavailability ([2]; male rats, based on AUC vs intravenous injection, across SC doses, read-out: subcutaneous bioavailability (% F)) of the same molecule?
Answer: 10 to 13%
